Here are results for 5 molecules from patent US20140087995A1 (published 2014).

Numbered stars: 1 amine (or outer) side, 2 acyl side, 3 side chain; on linkers, the order of the positions; unused ones are H or OH. Bridge positions count the residues as written; N and C are the ends. Side chains are listed from the residue outwards. Ends that are not written are not given here. * marks the point of attachment. C20 diacid = O=C(O)CCCCCCCCCCCCCCCCCCC(=O)*; γGlu = O=C(O)[C@H](CCC(=O)[*:2])N[*:1]; AEEA = NCCOCCOCC(=O)O

For assay [1], the target named is T1, human calcitonin receptor (human, UniProt P30988 25-474).
T1 construct: whole, on cells; Assay used cell membranes of the transfected BHK cells; also called hCTR; hCT
T1 sequence (looked up): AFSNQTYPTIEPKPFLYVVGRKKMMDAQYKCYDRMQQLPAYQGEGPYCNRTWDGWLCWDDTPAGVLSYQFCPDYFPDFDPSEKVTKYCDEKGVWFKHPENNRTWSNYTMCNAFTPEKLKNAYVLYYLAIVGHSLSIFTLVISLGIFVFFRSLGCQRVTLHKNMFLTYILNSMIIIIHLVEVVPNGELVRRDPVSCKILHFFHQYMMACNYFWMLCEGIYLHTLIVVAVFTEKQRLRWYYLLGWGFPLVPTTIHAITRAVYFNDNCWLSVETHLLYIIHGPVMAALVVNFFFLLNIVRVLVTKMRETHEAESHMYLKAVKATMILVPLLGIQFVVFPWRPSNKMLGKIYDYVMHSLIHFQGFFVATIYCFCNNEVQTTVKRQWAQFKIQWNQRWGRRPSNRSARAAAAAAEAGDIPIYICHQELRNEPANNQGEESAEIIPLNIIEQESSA
Put plainly: SPA radioligand competition (125I-calcitonin), membranes of BHK cells with human calcitonin receptor. The method, boiled down:
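BHK hCTR membranes 35 ng/μL + SPA beads 0.05 mg/well; buffer 50 mM Hepes pH 7.4, 1 mM CaCl2, 5 mM MgCl₂, 0.1% OA, 0.02% Tween20. 120 min, 25° C., shaking. Scintillation count; IC50 by one-site binding competition.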
(Loss of bound radioactivity is the signal in a displacement assay; it reports binding, not function.)

Assay [2] concerns the target T1, human calcitonin receptor. As to the kind of experiment: ratio IC50 hCTR / IC50 hAmylin-R of the two SPA competition assays; reference: human amylin receptor. The procedure:
The resulting pellet was resuspended, homogenized and centrifuged (20.000 rpm, 15 min) in a buffer containing 20 mM Na-HEPES and 0.1 mM EDTA (pH 7.4, buffer 2). The resulting pellet was resuspended in buffer 2 and protein concentration was measured (BCA protein Assay, Pierce). The homogenate was kept cold during the whole procedure. The membranes were kept at −80° C. until use. The assay was performed in a 384 well Optiplate (PerkinElmer) in a total volume of 40 ul. Membranes were mixed with SPA beads. Final concentration of membranes 35 ng/μL final and SPA beads was 0.05 mg/well. Test-compounds were dissolved in DMSO and further diluted in assay buffer (50 mM Hepes, pH 7.4, 1 mM CaCl2, 5 mM MgCl₂, 0.1% OA and 0.02% Tween20). […] The final mixture was incubated with shaking at 400 rpm for 120 min at 25° C. prior to centrifugation (1500 rpm, 10 min). Samples were analyzed on TopCounter™ (Packard). The IC₅₀ was calculated using (one site binding competition analysis) GraphPad Prism5 as a measure of receptor affinity.
Membranes were prepared in the following way; the cells were rinsed with PBS and incubated with Versene for approximately 5 min before harvesting. The cells were flushed with PBS and the cell-suspension was centrifuged for 5 min at 1000 rpm. Cells were homogenized (Ultrathurrax) in a buffer containing 20 mM Na-HEPES and 10 mM EDTA (pH 7.4) and centrifuged at 20.000 rpm for 15 min. The resulting pellet was resuspended, homogenized and centrifuged (20.000 rpm, 15 min) in a buffer containing 20 mM Na-HEPES and 0.1 mM EDTA (pH 7.4, buffer 2). The resulting pellet was resuspended in buffer 2 and protein concentration was measured (BCA protein Assay, Pierce). The homogenate was kept cold during the whole procedure. The membranes were kept at −80° C. until use. Assay was performed in a 384 well Optiplate (PerkinElmer) in a total volume of 40 ul. Membranes were mixed with SPA beads.

Usually IC50 stands for the concentration that inhibits the measured activity by half.

B1: N^α1-[(4S)-4-carboxy-4-(19-carboxynonadecanoylamino)butanoyl]-[His14,Arg17,Pro21,Pro27,Glu35]-h-amylin (peptide)
peptide: {C20 diacid-γGlu}-KCNTATCATQRLAHFLRHSSPNFGAIPSSTNVGSETY-NH2
modifications: disulfide 2-7
SMILES: CC[C@H](C)[C@H](NC(=O)[C@H](C)NC(=O)CNC(=O)[C@H](Cc1ccccc1)NC(=O)[C@H](CC(N)=O)NC(=O)[C@@H]1CCCN1C(=O)[C@H](CO)NC(=O)[C@H](CO)NC(=O)[C@H](Cc1c[nH]cn1)NC(=O)[C@H](CCCNC(=N)N)NC(=O)[C@H](CC(C)C)NC(=O)[C@H](Cc1ccccc1)NC(=O)[C@H](Cc1c[nH]cn1)NC(=O)[C@H](C)NC(=O)[C@H](CC(C)C)NC(=O)[C@H](CCCNC(=N)N)NC(=O)[C@H](CCC(N)=O)NC(=O)[C@@H](NC(=O)[C@H](C)NC(=O)[C@@H]1CSSC[C@H](NC(=O)[C@H](CCCCN)NC(=O)CC[C@H](NC(=O)CCCCCCCCCCCCCCCCCCC(=O)O)C(=O)O)C(=O)N[C@@H](CC(N)=O)C(=O)N[C@@H]([C@@H](C)O)C(=O)N[C@@H](C)C(=O)N[C@@H]([C@@H](C)O)C(=O)N1)[C@@H](C)O)C(=O)N1CCC[C@H]1C(=O)N[C@@H](CO)C(=O)N[C@@H](CO)C(=O)N[C@H](C(=O)N[C@@H](CC(N)=O)C(=O)N[C@H](C(=O)NCC(=O)N[C@@H](CO)C(=O)N[C@@H](CCC(=O)O)C(=O)N[C@H](C(=O)N[C@@H](Cc1ccc(O)cc1)C(N)=O)[C@@H](C)O)C(C)C)[C@@H](C)O
notes: Synthetic analogue; also called compound 30
As to B1, the 50% inhibitory concentration (IC50) in assay [1] was 0.0216 µM. Moreover, the “Ratio hCT/hAmylin binding” value in assay [2] was determined as 23.6.

B2: N^α1N^α1-[(4S)-4-carboxy-4-(19-carboxynonadecanoylamino)butanoyl]-[Glu14,Arg17,Pro21,Pro27,Glu35]-h-amylin (peptide)
peptide: {C20 diacid-γGlu}-KCNTATCATQRLAEFLRHSSPNFGAIPSSTNVGSETY-NH2
modifications: disulfide 2-7
SMILES: CC[C@H](C)[C@H](NC(=O)[C@H](C)NC(=O)CNC(=O)[C@H](Cc1ccccc1)NC(=O)[C@H](CC(N)=O)NC(=O)[C@@H]1CCCN1C(=O)[C@H](CO)NC(=O)[C@H](CO)NC(=O)[C@H](Cc1c[nH]cn1)NC(=O)[C@H](CCCNC(=N)N)NC(=O)[C@H](CC(C)C)NC(=O)[C@H](Cc1ccccc1)NC(=O)[C@H](CCC(=O)O)NC(=O)[C@H](C)NC(=O)[C@H](CC(C)C)NC(=O)[C@H](CCCNC(=N)N)NC(=O)[C@H](CCC(N)=O)NC(=O)[C@@H](NC(=O)[C@H](C)NC(=O)[C@@H]1CSSC[C@H](NC(=O)[C@H](CCCCN)NC(=O)CC[C@H](NC(=O)CCCCCCCCCCCCCCCCCCC(=O)O)C(=O)O)C(=O)N[C@@H](CC(N)=O)C(=O)N[C@@H]([C@@H](C)O)C(=O)N[C@@H](C)C(=O)N[C@@H]([C@@H](C)O)C(=O)N1)[C@@H](C)O)C(=O)N1CCC[C@H]1C(=O)N[C@@H](CO)C(=O)N[C@@H](CO)C(=O)N[C@H](C(=O)N[C@@H](CC(N)=O)C(=O)N[C@H](C(=O)NCC(=O)N[C@@H](CO)C(=O)N[C@@H](CCC(=O)O)C(=O)N[C@H](C(=O)N[C@@H](Cc1ccc(O)cc1)C(N)=O)[C@@H](C)O)C(C)C)[C@@H](C)O
notes: Synthetic analogue; also called compound 22
Take B2: in assay [1], the IC50 turned out to be 0.00973 µM. Moreover, the “Ratio hCT/hAmylin binding” value in assay [2] came to 12.3.

B3: N^ε1-[2-[2-[2-[[2-[2-[2-[[(4S)-4-carboxy-4-(19-carboxynonadecanoylamino)butanoyl]amino]ethoxy]ethoxy]acetyl]amino]ethoxy]ethoxy]acetyl]-[Arg17,Pro21,Pro27,Glu35 … (peptide)
peptide: K([AEEA-AEEA-γGlu-C20 diacid])CNTATCATQRLANFLRHSSPNFGAIPSSTNVGSETY-NH2
modifications: disulfide 2-7; N-terminus assumed
SMILES: CC[C@H](C)[C@H](NC(=O)[C@H](C)NC(=O)CNC(=O)[C@H](Cc1ccccc1)NC(=O)[C@H](CC(N)=O)NC(=O)[C@@H]1CCCN1C(=O)[C@H](CO)NC(=O)[C@H](CO)NC(=O)[C@H](Cc1c[nH]cn1)NC(=O)[C@H](CCCNC(=N)N)NC(=O)[C@H](CC(C)C)NC(=O)[C@H](Cc1ccccc1)NC(=O)[C@H](CC(N)=O)NC(=O)[C@H](C)NC(=O)[C@H](CC(C)C)NC(=O)[C@H](CCCNC(=N)N)NC(=O)[C@H](CCC(N)=O)NC(=O)[C@@H](NC(=O)[C@H](C)NC(=O)[C@@H]1CSSC[C@H](NC(=O)[C@@H](N)CCCCNC(=O)COCCOCCNC(=O)COCCOCCNC(=O)CC[C@H](NC(=O)CCCCCCCCCCCCCCCCCCC(=O)O)C(=O)O)C(=O)N[C@@H](CC(N)=O)C(=O)N[C@@H]([C@@H](C)O)C(=O)N[C@@H](C)C(=O)N[C@@H]([C@@H](C)O)C(=O)N1)[C@@H](C)O)C(=O)N1CCC[C@H]1C(=O)N[C@@H](CO)C(=O)N[C@@H](CO)C(=O)N[C@H](C(=O)N[C@@H](CC(N)=O)C(=O)N[C@H](C(=O)NCC(=O)N[C@@H](CO)C(=O)N[C@@H](CCC(=O)O)C(=O)N[C@H](C(=O)N[C@@H](Cc1ccc(O)cc1)C(N)=O)[C@@H](C)O)C(C)C)[C@@H](C)O
notes: Synthetic analogue; also called compound 25
For the molecule B3, in assay [1], the half-inhibitory concentration (IC50) was 0.0434 µM. In addition, in assay [2], the “Ratio hCT/hAmylin binding” value worked out at 56.5.

B4: N^ε1-[2-[2-[2-[[(4S)-4-carboxy-4-(19-carboxynonadecanoylamino)butanoyl]amino]ethoxy]ethoxy]acetyl]-[Arg17,Pro21,Pro27,Glu35]-h-amylin (peptide)
peptide: K([AEEA-γGlu-C20 diacid])CNTATCATQRLANFLRHSSPNFGAIPSSTNVGSETY-NH2
modifications: disulfide 2-7; N-terminus assumed
SMILES: CC[C@H](C)[C@H](NC(=O)[C@H](C)NC(=O)CNC(=O)[C@H](Cc1ccccc1)NC(=O)[C@H](CC(N)=O)NC(=O)[C@@H]1CCCN1C(=O)[C@H](CO)NC(=O)[C@H](CO)NC(=O)[C@H](Cc1c[nH]cn1)NC(=O)[C@H](CCCNC(=N)N)NC(=O)[C@H](CC(C)C)NC(=O)[C@H](Cc1ccccc1)NC(=O)[C@H](CC(N)=O)NC(=O)[C@H](C)NC(=O)[C@H](CC(C)C)NC(=O)[C@H](CCCNC(=N)N)NC(=O)[C@H](CCC(N)=O)NC(=O)[C@@H](NC(=O)[C@H](C)NC(=O)[C@@H]1CSSC[C@H](NC(=O)[C@@H](N)CCCCNC(=O)COCCOCCNC(=O)CC[C@H](NC(=O)CCCCCCCCCCCCCCCCCCC(=O)O)C(=O)O)C(=O)N[C@@H](CC(N)=O)C(=O)N[C@@H]([C@@H](C)O)C(=O)N[C@@H](C)C(=O)N[C@@H]([C@@H](C)O)C(=O)N1)[C@@H](C)O)C(=O)N1CCC[C@H]1C(=O)N[C@@H](CO)C(=O)N[C@@H](CO)C(=O)N[C@H](C(=O)N[C@@H](CC(N)=O)C(=O)N[C@H](C(=O)NCC(=O)N[C@@H](CO)C(=O)N[C@@H](CCC(=O)O)C(=O)N[C@H](C(=O)N[C@@H](Cc1ccc(O)cc1)C(N)=O)[C@@H](C)O)C(C)C)[C@@H](C)O
notes: Synthetic analogue; also called compound 26
Regarding B4, the 50% inhibitory concentration (IC50) in assay [1] was determined as 0.0253 µM. The “Ratio hCT/hAmylin binding” value in assay [2] was 47.5.

B5: N^ε1-[2-[2-[2-[[(4S)-4-carboxy-4-(19-carboxynonadecanoylamino)butanoyl]amino]ethoxy]ethoxy]acetyl]-[Arg17,Pro21,Pro27,Pro31]-h-amylin (peptide)
peptide: K([AEEA-γGlu-C20 diacid])CNTATCATQRLANFLRHSSPNFGAIPSSTPVGSNTY-NH2
modifications: disulfide 2-7; N-terminus assumed
SMILES: CC[C@H](C)[C@H](NC(=O)[C@H](C)NC(=O)CNC(=O)[C@H](Cc1ccccc1)NC(=O)[C@H](CC(N)=O)NC(=O)[C@@H]1CCCN1C(=O)[C@H](CO)NC(=O)[C@H](CO)NC(=O)[C@H](Cc1c[nH]cn1)NC(=O)[C@H](CCCNC(=N)N)NC(=O)[C@H](CC(C)C)NC(=O)[C@H](Cc1ccccc1)NC(=O)[C@H](CC(N)=O)NC(=O)[C@H](C)NC(=O)[C@H](CC(C)C)NC(=O)[C@H](CCCNC(=N)N)NC(=O)[C@H](CCC(N)=O)NC(=O)[C@@H](NC(=O)[C@H](C)NC(=O)[C@@H]1CSSC[C@H](NC(=O)[C@@H](N)CCCCNC(=O)COCCOCCNC(=O)CC[C@H](NC(=O)CCCCCCCCCCCCCCCCCCC(=O)O)C(=O)O)C(=O)N[C@@H](CC(N)=O)C(=O)N[C@@H]([C@@H](C)O)C(=O)N[C@@H](C)C(=O)N[C@@H]([C@@H](C)O)C(=O)N1)[C@@H](C)O)C(=O)N1CCC[C@H]1C(=O)N[C@@H](CO)C(=O)N[C@@H](CO)C(=O)N[C@H](C(=O)N1CCC[C@H]1C(=O)N[C@H](C(=O)NCC(=O)N[C@@H](CO)C(=O)N[C@@H](CC(N)=O)C(=O)N[C@H](C(=O)N[C@@H](Cc1ccc(O)cc1)C(N)=O)[C@@H](C)O)C(C)C)[C@@H](C)O
notes: Synthetic analogue; also called compound 49
Take B5: the IC50 in assay [1] stood at 0.0129 µM. Further, the “Ratio hCT/hAmylin binding” value in assay [2] was found to be 10.8.
